In one assay the target is T1, P2-AA-1HGe-A.
T1 chain: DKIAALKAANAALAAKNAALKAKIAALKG
The assay can be described thus: two-hybrid library CCmax.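 Also: natural log of median RNA to DNA barcode read ratio; higher means stronger binding.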 To be noted: mean of both orientations.

In a further assay the target is T2, P2-AA-1HGe-Q.
T2 chain: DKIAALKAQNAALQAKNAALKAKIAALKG
The assay can be described thus: two-hybrid library CCmax.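 Also: natural log of median RNA to DNA barcode read ratio; higher means stronger binding.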 To be noted: mean of both orientations.

The target of the next assay is T3, P2-AA.
T3 chain: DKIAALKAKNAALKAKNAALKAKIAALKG
Description: two-hybrid library CCmax.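 Also: natural log of median RNA to DNA barcode read ratio; higher means stronger binding.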 To be noted: mean of both orientations.

In another assay the target is T4, P2-AA-1HGe-D.
T4 chain: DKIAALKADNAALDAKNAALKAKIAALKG
The assay can be described thus: two-hybrid library CCmax.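 Also: natural log of median RNA to DNA barcode read ratio; higher means stronger binding.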 To be noted: mean of both orientations.

A further assay addresses T5, P2-AA-1HGe-R.
T5 chain: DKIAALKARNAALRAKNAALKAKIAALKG
Description: two-hybrid library CCmax.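 Also: natural log of median RNA to DNA barcode read ratio; higher means stronger binding.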 To be noted: mean of both orientations.

In a further assay the target is T6, P2-AA-1HGe-M.
T6 chain: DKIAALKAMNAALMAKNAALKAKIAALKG
The assay can be described thus: two-hybrid library CCmax.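 Also: natural log of median RNA to DNA barcode read ratio; higher means stronger binding.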 To be noted: mean of both orientations.

For the next assay, the target named is T7, P2-AA-1HGe-T.
T7 chain: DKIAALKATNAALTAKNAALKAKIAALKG
The assay can be described thus: two-hybrid library CCmax. To be noted: mean of both orientations.

The target in another assay is T8, 4H491-bN.
T8 chain: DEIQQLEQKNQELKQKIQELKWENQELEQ
The assay can be described thus: two-hybrid library CCNG1.

The next assay has as its target T9, 4H2883-bN.
T9 chain: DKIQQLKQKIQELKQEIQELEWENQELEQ
Description: two-hybrid library CCNG1.

The target of another assay is T10, 4H48-bN.
T10 chain: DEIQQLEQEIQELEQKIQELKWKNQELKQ
Description: two-hybrid library CCNG1.

A further assay concerns the target T11, 4H2937-bN.
T11 chain: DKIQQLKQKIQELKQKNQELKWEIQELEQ
Description: two-hybrid library CCNG1.

Another assay addresses T12, 4H2944-bN.
T12 chain: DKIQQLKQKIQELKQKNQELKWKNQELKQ
Description: two-hybrid library CCNG1.

Another assay deals with T13, 4H2696-bN.
T13 chain: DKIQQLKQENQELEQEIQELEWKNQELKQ
Description: two-hybrid library CCNG1.

Another assay deals with T14, 4H342-bN.
T14 chain: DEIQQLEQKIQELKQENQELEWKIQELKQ
The assay can be described thus: two-hybrid library CCNG1.

The next assay addresses T15, 4H3651-AA.
T15 chain: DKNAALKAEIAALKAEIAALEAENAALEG
Description: two-hybrid library CCmax. To be noted: mean of both orientations.

In the next assay the target is T16, 4H2721-AA.
T16 chain: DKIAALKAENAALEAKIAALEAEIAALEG
The assay can be described thus: two-hybrid library CCmax. To be noted: mean of both orientations.

The target of the next assay is T17, 4H2750-AA.
T17 chain: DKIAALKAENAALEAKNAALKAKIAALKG
Description: two-hybrid library CCmax.

The next assay addresses T18, 4H355-AA.
T18 chain: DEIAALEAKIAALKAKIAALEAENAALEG
Description: two-hybrid library CCmax. To be noted: mean of both orientations.

The next assay has as its target T19, 4H3365-AA.
T19 chain: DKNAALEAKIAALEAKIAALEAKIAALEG
Description: two-hybrid library CCmax. To be noted: mean of both orientations.

In another assay the target is T20, 4H1136-AA.
T20 chain: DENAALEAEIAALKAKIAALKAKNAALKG
The assay can be described thus: two-hybrid library CCmax.

Another assay addresses T21, 4H3705-AA.
T21 chain: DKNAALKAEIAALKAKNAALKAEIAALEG
Description: two-hybrid library CCmax. To be noted: mean of both orientations.

A further assay concerns the target T22, 4H486-AA.
T22 chain: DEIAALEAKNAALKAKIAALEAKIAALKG
The assay can be described thus: two-hybrid library CCmax. To be noted: mean of both orientations.

The next assay deals with T23, 4H1257-AA.
T23 chain: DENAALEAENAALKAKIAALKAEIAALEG
The assay can be described thus: two-hybrid library CCmax. To be noted: mean of both orientations.

A further assay has as its target T24, 4H3020-AA.
T24 chain: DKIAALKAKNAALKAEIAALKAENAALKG
The assay can be described thus: two-hybrid library CCmax. To be noted: mean of both orientations.

The next assay addresses T25, 4H3782-AA.
T25 chain: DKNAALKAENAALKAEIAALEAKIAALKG
The assay can be described thus: two-hybrid library CCmax. To be noted: mean of both orientations.

In the next assay the target is T26, 4H2898-AA.
T26 chain: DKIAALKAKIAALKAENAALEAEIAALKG
Description: two-hybrid library CCmax. To be noted: mean of both orientations.

The target of another assay is T27, 4H_APH.
T27 chain: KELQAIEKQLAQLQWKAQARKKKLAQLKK
The assay can be described thus: two-hybrid library CCmax. To be noted: mean of both orientations.

For a further assay, the target named is T28, 4H140-AA.
T28 chain: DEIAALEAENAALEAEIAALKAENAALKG
The assay can be described thus: two-hybrid library CCmax. To be noted: mean of both orientations.

In another assay the target is T29, 4H895-AA.
T29 chain: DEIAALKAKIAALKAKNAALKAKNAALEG
The assay can be described thus: two-hybrid library CCmax. To be noted: mean of both orientations.

The target in another assay is T30, 4H465-AA.
T30 chain: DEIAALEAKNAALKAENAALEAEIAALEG
The assay can be described thus: two-hybrid library CCmax. To be noted: mean of both orientations.

The next assay has as its target T31, 4H2600-AA.
T31 chain: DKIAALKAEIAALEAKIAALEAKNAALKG
Description: two-hybrid library CCmax. To be noted: mean of both orientations.

Another assay concerns the target GCN2_T. The assay can be described thus: two-hybrid library CCmax.
The target of another assay is 4H_GCN4. The assay can be described thus: two-hybrid library CCmax.
Chain of 4H_GCN4 (chain, as listed by the source): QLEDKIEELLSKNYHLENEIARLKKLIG
The next assay addresses T32, 4H1802-AA.
T32 chain: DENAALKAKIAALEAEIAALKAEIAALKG
The assay can be described thus: two-hybrid library CCmax. To be noted: mean of both orientations.

The next assay concerns the target T33, 4H58-AA.
T33 chain: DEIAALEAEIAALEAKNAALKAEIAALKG
Description: two-hybrid library CCmax. To be noted: mean of both orientations.

The next assay has as its target T34, 4H535-AA.
T34 chain: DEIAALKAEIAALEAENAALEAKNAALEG
Description: two-hybrid library CCmax. To be noted: mean of both orientations.

Another assay concerns the target T35, 4H_BCR.
T35 chain: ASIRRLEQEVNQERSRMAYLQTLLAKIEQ
The assay can be described thus: two-hybrid library CCmax. To be noted: mean of both orientations.

B1: P1-AA-1HGe-Y (peptide)
chain: DEIAALEAYNAALYAENAALEAEIAALEG
Consider B1, for which the interaction score in the assay with P2-AA-1HGe-A amounted to 1.65; with P2-AA-1HGe-Q it was 1.96; with P2-AA, 1.87; in the assay with P2-AA-1HGe-D, 1.57; in the assay with P2-AA-1HGe-R it was 2.01; in the assay with P2-AA-1HGe-M, 1.67. The interaction score in the assay with P2-AA-1HGe-T turned out to be 2.08.

B2: 4H2696-bN (peptide)
chain: DKIQQLKQENQELEQEIQELEWKNQELKQ
B2: the interaction score was 0.0322 with 4H491-bN; 1.32 with 4H2883-bN; -1.05 with 4H48-bN; 0.131 with 4H2937-bN; -0.274 in the assay with 4H2944-bN; -0.134 in the assay with 4H2696-bN. Moreover, in the assay with 4H342-bN, the interaction score was -0.885.

B3: 4H1136-AA (peptide)
chain: DENAALEAEIAALKAKIAALKAKNAALKG
With B3, the interaction score is 2.2 with 4H3651-AA; -1.15 in the assay with 4H2721-AA; -1.46 with 4H2750-AA; 0.718 with 4H355-AA; -1.36 with 4H3365-AA; -0.12 with 4H1136-AA. In addition, the interaction score with 4H3705-AA was -1.5; in the assay with 4H486-AA, -0.319; with 4H1257-AA it was 0.673; in the assay with 4H3020-AA, -1.2; with 4H3782-AA, -0.406; with 4H2898-AA, -0.29. Moreover, the interaction score is -1.64 in the assay with 4H_APH; -1.41 in the assay with 4H140-AA; -1.31 in the assay with 4H895-AA; -1.44 in the assay with 4H465-AA; 0.398 in the assay with 4H2600-AA; -1.68 with GCN2_T. For the same molecule, the interaction score in the assay with 4H_GCN4 is -1.83; in the assay with 4H1802-AA it was -1.42; in the assay with 4H58-AA it was -0.193; with 4H535-AA, 1.79; in the assay with 4H_BCR it was -1.73.

B4: P1-AA-1HGe-W (peptide)
chain: DEIAALEAWNAALWAENAALEAEIAALEG
For the molecule B4, the interaction score came to 1.9 with P2-AA-1HGe-A; 1.87 with P2-AA-1HGe-Q; 1.7 in the assay with P2-AA; 1.27 with P2-AA-1HGe-D; 1.34 in the assay with P2-AA-1HGe-R; 2.21 in the assay with P2-AA-1HGe-M. Besides, the interaction score in the assay with P2-AA-1HGe-T was found to be 2.15.

The values above are taken from article PMC10397247.
